Molecular target: RBD-ferritin fusion protein (SARS-CoV-2 spike RBD-… linker-H. pylori-bullfrog ferritin) (SARS-CoV-2 Wuhan-Hu-1 strain | bullfrog (Rana catesbeiana) | Helicobacter pylori)
Test: SEC; concentrated supernatant (500-kDa MWCO TFF) on HiPrep 16/60 Sephacryl S-500 HR, degassed PBS, 0.4 ml/min; size from LMW/HMW calibration standards; self-assembly of the monomer into the nanoparticle

“RBD-ferritin fusion protein (SARS-CoV-2 spike RBD-… linker-H. pylori-bullfrog ferritin)” gave a stoichiometry N of 24.
